According to article PMC4657913:

Target: RHDV VPg fused to the VN155 (I152L) fragment for BiFC (Rabbit hemorrhagic disease virus (RHDV) strain CHA/JX/97)
Experiment: split reporter (BiFC, NanoBiT); BiFC in RK-13 cells, pVPg-VN and peIF4E-VC; green fluorescence quantified by flow cytometry 48 h after transfection

eIF4E fused to the VC155 fragment for BiFC (from UniProt P29338 1-217) (natural protein)
BiFC signal-to-noise (ratio between the treatment and control groups): > 3
